The source of these data is patent US20190309284A1, “METHODS AND KITS FOR DYNAMIC TARGETED HYPERMUTATION” (Massachusetts Institute of Technology, priority 2018, published 2019).

For series [1] the following is noted: promoter strength, Registry of Standard Biological Parts (Anderson collection); cited from earlier work.
Series [2] has as its system Tet^R gene with inactive ACG start codon downstream of Kan^R on reporter plasmid. The experiment in a line: Start codon reversion mutation assay, tetracycline resistance (downstream of target). To be noted: 24 h growth. It counts as cell-based, E. coli. The protocol: (§1) Mutation assay: To test mutagenesis rates, the control and mutagenic strains (Strep^R) carrying reporter plasmids (Amp^R) were streaked out on LB agar with 100 μg/mL streptomycin and 100 μg/mL ampicillin and grown at 37° C. for 24 hours. Then single colonies were picked in triplicate for each sample and grown in 5 mL LB with 100 μg/mL streptomycin,100 μg/mL ampicillin and 25 mM arabinose (with 10 μg/mL chloramphenicol if the strain contains MP6) at 37° C., 250 r.p.m. for 24 hours. Then 1 mL aliquots of each overnight were pelleted at 6000×g for 3 minutes and resuspended in 1 mL LB to remove arabinose. Then 50 μL of each resuspension was plated on LB agar plates with 50 μg/mL tetrazolium chloride and 200 μg/mL kanamycin, 20 μg/mL tetracycline, 100 μg/mL fosfomycin or 100 μg/mL rifampicin unless otherwise stated. 50 μL of a 100,000-fold dilution of each culture was also plated on LB agar with 100 μg/mL streptomycin, 100 μg/mL ampicillin and 50 μg/mL tetrazolium chloride. After incubating the plates at 37° C. for 48 hours, they were imaged by inverting the plates onto transparencies and scanning on a document scanner at a resolution of 400 d.p.i. The colonies were then counted using the software OpenCFU (3.9.0) (Geissmann Q., PLoS One. 2013; 8(2): e54072), with minimum colony radius set to 3, the maximum colony radius set to 50 and the regular threshold set to 4.
(§2) Mutation Assay: To assess mutagenesis rates, the control (Δung, rApo1, drApo1, and drApo1−T7; TABLE 8) and mutagenic strains (MutaT7 and MP6; TABLE 8) (Strep^R) carrying reporter plasmids (AmpR) were streaked on LB agar with 100 μg/mL streptomycin and 100 μg/mL ampicillin and grown at 37° C. for 24 h in order to obtain clones. Single colonies were picked in triplicate for each sample and used to inoculate 5 mL LB with 100 μg/mL streptomycin, 100 μg/mL ampicillin, and 25 mM arabinose (with 10 μg/mL chloramphenicol for the MP6 strain, TABLE 8), then shaken at 250 r.p.m. and 37° C. for 24 h to accumulate mutations during growth. 1 mL aliquots of each culture were pelleted at 6000×g for 3 min and resuspended in 1 mL LB to remove arabinose. Each resuspension was plated on LB agar plates with 50 μg/mL tetrazolium chloride (a metabolic contrast dye for visualizing colonies) and the antibiotics indicated below to analyze mutation rates and viability: • 50 μL of a 100,000-fold dilution of each resuspension was plated on LB agar with 100 μg/mL streptomycin, 100 μg/mL ampicillin, and 50 μg/mL tetrazolium chloride. For samples from the MP6 strain, owing to lower growth of that strain, 50 μL of a 10,000-fold dilution of each resuspension was plated to obtain a more accurate count. The colony counts from these plates were used to calculate the cell viability (i.e., the number of live, ampicillin resistant cells) in CFU/mL for each sample (FIG. 13D). • 50 μL of each resuspension was plated on LB agar plates with 200 μg/mL kanamycin and 50 μg/mL tetrazolium chloride. The colony counts from these plates were used to calculate the number of kanamycin resistant mutants in CFU/mL for each sample (FIG. 13E). The number of kanamycin resistant mutants in CFU/mL was divided by the number of live ampicillin resistant cells in CFU/mL for each sample to obtain the kanamycin resistant mutation frequency (FIG. 13B). • 50 μL of each resuspension was plated on LB agar plates with 20 μg/mL tetracycline and 50 μg/mL tetrazolium chloride. The colony counts from these plates were used to calculate the number of tetracycline resistant mutants in CFU/mL for each sample. The number of tetracycline resistant mutants in CFU/mL was divided by the number of live ampicillin resistant cells in CFU/mL for each sample to obtain the tetracycline resistant mutation frequency (FIG. 13B). • 50 μL of each resuspension was plated on LB agar plates with 100 μg/mL rifampicin and 50 μg/mL tetrazolium chloride. […]

The subject of a further series is E. coli. Description: Cell viability (live ampicillin resistant cells) in mutation assay. It counts as cell-based. To be noted: 24 h growth. As to the method:
as §1
Mutation Assay: To assess mutagenesis rates, the control (Δung, rApo1, drApo1, and drApo1−T7; TABLE 8) and mutagenic strains (MutaT7 and MP6; TABLE 8) (Strep^R) carrying reporter plasmids (AmpR) were streaked on LB agar with 100 μg/mL streptomycin and 100 μg/mL ampicillin and grown at 37° C. for 24 h in order to obtain clones. Single colonies were picked in triplicate for each sample and used to inoculate 5 mL LB with 100 μg/mL streptomycin, 100 μg/mL ampicillin, and 25 mM arabinose (with 10 μg/mL chloramphenicol for the MP6 strain, TABLE 8), then shaken at 250 r.p.m. and 37° C. for 24 h to accumulate mutations during growth. […]

The subject of series [3] is E. coli genome. Description: Off-target mutagenesis, fosfomycin resistance assay. It counts as cell-based. The settings on record: 24 h growth. As to the method:
as §1, §2

Series [4] concerns Kan^R gene with ACG in place of ATG start codon on reporter plasmid. The experiment in a line: Start codon reversion mutation assay, kanamycin resistance (on-target). To be noted: 24 h growth. The format is cell-based, E. coli. The protocol: as §1, §2
The subject of series [5] is E. coli genome. Description: Off-target mutagenesis, rifampicin resistance assay. It counts as cell-based. The settings on record: 24 h growth. As to the method: as §1, §2
[6] abbreviates: reporter plasmid No T7 promoter + filler DNA.
Setting [7] is: reporter plasmid T7 promoter + filler DNA.
[8] abbreviates: reporter plasmid T7 promoter + terminator array.

As for “BBa_J23109: Anderson collection promoter, SEQ ID NO: 11 (DNA TTTACAGCTAGCTCAGTCCTAGGGACTGTGCTAGC; listed as DNA, chemistry not fully specified)”, the “Measured Strength” value in series [1] was 0.04.

For “BBa_J23111: Anderson collection promoter, SEQ ID NO: 13 (DNA TTGACGGCTAGCTCAGTCCTAGGTATAGTGCTAGC; listed as DNA, chemistry not fully specified)”, the “Measured Strength” value in series [1] is reported as 0.58.

Turning to “BBa_J23107: Anderson collection promoter, SEQ ID NO: 9 (DNA TTTACGGCTAGCTCAGCCCTAGGTATTATGCTAGC; listed as DNA, chemistry not fully specified)”, the “Measured Strength” value in series [1] is reported as 0.36.

Consider “BBa_J23116: Anderson collection promoter, SEQ ID NO: 18 (DNA TTGACAGCTAGCTCAGTCCTAGGGACTATGCTAGC; listed as DNA, chemistry not fully specified)”, for which the “Measured Strength” value in series [1] is on record as 0.16.

Take “BBa_J23108: Anderson collection promoter, SEQ ID NO: 10 (DNA CTGACAGCTAGCTCAGTCCTAGGTATAATGCTAGC; listed as DNA, chemistry not fully specified)”: in series [1], the “Measured Strength” value is reported as 0.51.

Take “BBa_J23100: Anderson collection promoter, SEQ ID NO: 2 (DNA TTGACGGCTAGCTCAGTCCTAGGTACAGTGCTAGC; listed as DNA, chemistry not fully specified)”: in series [1], the “Measured Strength” value is reported as 1.

Consider “BBa_J23110: Anderson collection promoter, SEQ ID NO: 12 (DNA TTTACGGCTAGCTCAGTCCTAGGTACAATGCTAGC; listed as DNA, chemistry not fully specified)”, for which the “Measured Strength” value in series [1] is 0.33.

As for “BBa_J23113: Anderson collection promoter, SEQ ID NO: 15 (DNA CTGATGGCTAGCTCAGTCCTAGGGATTATGCTAGC; listed as DNA, chemistry not fully specified)”, the “Measured Strength” value in series [1] is given as 0.01.

Take “BBa_J23106: Anderson collection promoter, SEQ ID NO: 8 (DNA TTTACGGCTAGCTCAGTCCTAGGTATAGTGCTAGC; listed as DNA, chemistry not fully specified)”: the “Measured Strength” value in series [1] is listed as 0.47.

Turning to “BBa_J23103: Anderson collection promoter, SEQ ID NO: 5 (DNA CTGATAGCTAGCTCAGTCCTAGGGATTATGCTAGC; listed as DNA, chemistry not fully specified)”, in series [1], the “Measured Strength” value was 0.01.

With “BBa_J23117: Anderson collection promoter, SEQ ID NO: 19 (DNA TTGACAGCTAGCTCAGTCCTAGGGATTGTGCTAGC; listed as DNA, chemistry not fully specified)”, the “Measured Strength” value in series [1] is 0.06.

Turning to “BBa_J23104: Anderson collection promoter, SEQ ID NO: 6 (DNA TTGACAGCTAGCTCAGTCCTAGGTATTGTGCTAGC; listed as DNA, chemistry not fully specified)”, in series [1], the “Measured Strength” value is recorded as 0.72.

For the molecule “BBa_J23102: Anderson collection promoter, SEQ ID NO: 4 (DNA TTGACAGCTAGCTCAGTCCTAGGTACTGTGCTAGC; listed as DNA, chemistry not fully specified)”, the “Measured Strength” value in series [1] is 0.86.

For the molecule “BBa_J23118: Anderson collection promoter, SEQ ID NO: 20 (DNA TTGACGGCTAGCTCAGTCCTAGGTATTGTGCTAGC; listed as DNA, chemistry not fully specified)”, in series [1], the “Measured Strength” value was 0.56.

In the case of “BBa_J23101: Anderson collection promoter, SEQ ID NO: 3 (DNA TTTACAGCTAGCTCAGTCCTAGGTATTATGCTAGC; listed as DNA, chemistry not fully specified)”, in series [1], the “Measured Strength” value is recorded as 0.70.

With “BBa_J23114: Anderson collection promoter, SEQ ID NO: 16 (DNA TTTATGGCTAGCTCAGTCCTAGGTACAATGCTAGC; listed as DNA, chemistry not fully specified)”, in series [1], the “Measured Strength” value is 0.10.

With “BBa_J23112: Anderson collection promoter, SEQ ID NO: 14 (DNA CTGATAGCTAGCTCAGTCCTAGGGATTATGCTAGC; listed as DNA, chemistry not fully specified)”, the “Measured Strength” value in series [1] is reported as 0.00.

Take “BBa_J23105: Anderson collection promoter, SEQ ID NO: 7 (DNA TTTACGGCTAGCTCAGTCCTAGGTACTATGCTAGC; listed as DNA, chemistry not fully specified)”: the “Measured Strength” value in series [1] is given as 0.24.

Take “BBa_J23115: Anderson collection promoter, SEQ ID NO: 17 (DNA TTTATAGCTAGCTCAGCCCTTGGTACAATGCTAGC; listed as DNA, chemistry not fully specified)”: the “Measured Strength” value in series [1] is reported as 0.15.

B1: drApoI (protein, UniProt P38483 1-229, looked up, variant E63Q)
C->U-editing enzyme APOBEC-1: MSSETGPVAVDPTLRRRIEPHEFEVFFDPRELRKETCLLYEINWGGRHSIWRHTSQNTNKHVQVNFIEKFTTERYFCPNTRCSITWFLSWSPCGECSRAITEFLSRYPHVTLFIYIARLYHHADPRNRQGLRDLISSGVTIQIMTEQESGYCWRNFVNYSPSNEAHWPRYPHLWVRLYVLELYCIILGLPPCLNILRRKQPQLTFFTIALQSCHYQRLPPHILWATGLK
As to B1, the entries for the “Tet resistance Frequency” value in series [2] (setting [6]), in series [2] (setting [7]) and in series [2] (setting [8]) were 1.1E−7, 4.6E−7 and 2.1E−7, respectively. In addition, the “Tet resistant CFU/mL” value is reported as 1.8E+2 CFU/mL in series [2] (setting [6]), 6.3E+2 CFU/mL in series [2] (setting [7]) and 3.7E+2 CFU/mL in series [2] (setting [8]). Besides, the “Amp resistant CFU/mL (cell viability)” value was determined as 1.6E+9 CFU/mL in the series with E. coli (setting [6]), 1.3E+9 CFU/mL in the series with E. coli (setting [7]) and 1.8E+9 CFU/mL in the series with E. coli (setting [8]). Further, the “Fos resistance Frequency” value is reported as 2.0E−6 with E. coli genome [3] (setting [6]), 2.7E−6 with E. coli genome [3] (setting [7]) and 1.9E−6 with E. coli genome [3] (setting [8]). Also, the results for the “Fos resistant CFU/mL” value in the series on E. coli genome [3] (setting [6]), in the series with E. coli genome [3] (setting [7]) and in the series with E. coli genome [3] (setting [8]) were 3.3E+3 CFU/mL, 3.5E+3 CFU/mL and 3.4E+3 CFU/mL, respectively. Further, the “Kan resistance Frequency” value in series [4] (setting [6]) came to 3.8E−8; in series [4] (setting [7]) it was 5.2E−7; in series [4] (setting [8]), 6.6E−7. The “Kan resistant CFU/mL” value came to 6.0E+1 CFU/mL in series [4] (setting [6]), 6.5E+2 CFU/mL in series [4] (setting [7]) and 1.2E+3 CFU/mL in series [4] (setting [8]). Besides, the “Rif resistance Frequency” value in the series on E. coli genome [5] (setting [6]) is recorded as 4.5E−7; in the series with E. coli genome [5] (setting [7]), 3.0E−7; in the series with E. coli genome [5] (setting [8]) it was 3.4E−7. In addition, the “Rif resistant CFU/mL” value with E. coli genome [5] (setting [6]) was found to be 7.6E+2 CFU/mL; with E. coli genome [5] (setting [7]) it was 4.0E+2 CFU/mL; in the series on E. coli genome [5] (setting [8]), 5.9E+2 CFU/mL.
